In paper PMC8145704, “Conformational Plasticity of Hepatitis B Core Protein Spikes Promotes Peptide Binding Independent of the Secretion Phenotype” (Microorganisms, 2021):

Target: T1, WT-HBc capsids (hepatitis B core protein, genotype D; strain ayw; GenBank: V01460.1) (Hepatitis B virus (genotype D; strain ayw)), P03146
T1 chain: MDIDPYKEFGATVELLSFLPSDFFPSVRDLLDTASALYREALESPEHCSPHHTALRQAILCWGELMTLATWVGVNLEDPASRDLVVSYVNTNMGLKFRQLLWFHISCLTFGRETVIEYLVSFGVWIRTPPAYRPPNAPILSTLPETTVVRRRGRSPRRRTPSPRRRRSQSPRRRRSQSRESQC
Assay: negative-staining electron microscopy
Conditions: remark: other sources report otherwise

B1: WT-HBc capsids (hepatitis B core protein, genotype D; strain ayw; GenBank: V01460.1), P03146 1-183 (natural protein)
chain: T1 chain
stoichiometry N (subunits per capsid): 240
